Measurements: patent US10214741B2, “Methods and compositions for inhibiting retinopathy of prematurity” (University of Utah Research Foundation, priority 2014, dated 2019)

Legend:
[1] = test system: macrophages; test: Macrophages in rat ROP and ROP+SO models; format: in vivo; conditions: 1 uL intravitreal
Excerpt: Activation of NADPH oxidase generally requires aggregation of a NOX isoform (NOX1-5, Duox1 or 2) with membrane bound p22phox; for NOX1-3 activation, aggregation with Rac1 and cytoplasmic subunits p47phox, p67phox or homologs is also required. Few studies address oxygen effects on NADPH oxidase regulated signaling in ROP or development. Studying NADPH oxidase in vivo is also complicated, because 1) of compensation from NOX isoforms or homologs, which differ in different tissues, and 2) most inhibitors are not specific. In this example, oxygen stresses were varied by using 3 different OIR models: ROP and ROP+SO models in rat and OIR model in mouse. NADPH oxidase-induced signaling in ECs was targeted by reducing leukocyte/macrophages, which generate ROS through NADPH oxidase, or with a transgenic mouse. In rat ROP and ROP+SO models, macrophages ˜75% (FIG. 7A) were reduced with 1 uL intravitreal clodronate). […] Macrophages have multiple effects on angiogenesis including through non-NADPH oxidase mechanisms, so a more specific method was used to study NADPH oxidase-related signaling. NOX 1, 2, 4 are known to be involved in pathologic retinal angiogenesis; NOX2 is in macrophages and ECs. Therefore p47phox−/− mice were used to reduce NADPH oxidase activation from NOX 1-3. […]

[2] = test system: rat ROP model; test: Lectin-stained retinal flat mounts, IVNV and AVA, rat ROP model (rat 50/10 OIR model); format: in vivo; conditions: 1 uL intravitreal, ROP model
[3] = test system: retina; conditions: long-term periocular treatment; cited from earlier work
[4] = test system: EPOR; test: EPOR expression in hRMVECs (qPCR, Western blot); format: cell-based, human; conditions: overnight treatment, vs PBS
Excerpt: hRMVECs (Cell Systems, Kirkland, Wash.) were maintained in EGM-2 endothelial growth medium (Lonza, Walkers-ville, MD) supplemented with 5% fetal bovine serum. Cells of passage 3 to 5 were used for experiments. […]
For siRNA transfection, hRMVECs at 70% confluency were transfected in six-well plates with siRNAs targeting human EPOR, VEGFR2, or STAT3 (Life Technologies, Carlsbad, Calif.) using Lipofectamine 2000 reagent (Invitrogen by Life Technologies, Carlsbad, Calif.). A silencer selective negative control siRNA was used as control.
Total RNA of cells was extracted by TRI Reagent (Sigma-Aldrich, St. Louis, Mo.). For dissected retinas, total RNA was extracted using an RNeasy mini kit (Qiagen, Valencia, Calif.). RNA was quantified using a NanoDrop spectrophotometer (Thermo Fisher Scientific, Waltham, Mass.). cDNA was generated with the use of a high-capacity cDNA archive kit (Life Technologies, Carlsbad, Calif.). qPCR was performed on a Mastercycler ep realplex system (Eppendorf, Hauppauge, N.Y.) with the use of SYBR Green master mix (Roche Diagnostics, Indianapolis, Ind.) and primers synthesized by the core research facility of the University of Utah. Expression levels for VEGFA were normalized to the mean value of internal control β-actin. […]
Dissected retinas and hRMVECs were lysed in radioimmunoprecipitation assay buffer with 1:100 protease inhibitors (Roche Diagnostics, Indianapolis, Ind.) and 2 mmol/L sodium orthovanadate and were homogenized and centrifuged at 13,000 rpm (15,700 g) for 10 minutes at 4° C. Total protein in the supernatant fluid was quantified by a bicinchoninic acid assay (Pierce BCA; Thermo Fisher Scientific, Waltham, Mass.). […] Blots were visualized, and the relative densities of bands were calculated as described herein, using gel analysis software (UN-SCAN-IT gel, version 6.1; Silk Scientific, Orem, Utah). Relative activities were calculated as the ratio of phosphorylated to total protein or to β-actin and are expressed as fold difference compared with control. At least six samples from each group were measured and analyzed.

[5] = test system: STAT3; test: Western blot of STAT3 in 293T cotransfected with Lenti-VE-cad-GFP-driven shRNA and plasmid expressing coding sequence; format: cell-based, rat; conditions: 293Ts
Excerpt: The strategy can be similar to knockdown of MC-expressed VEGFA, except a ve-cadherin promoter to target ECs can be used. The ve-cadherin promoter recruits polymerase II to drive miR30 embedded shRNAs. […] For control, shRNA targeted to luciferase (luc.shRNA), a nonmammalian gene, was used. Into a plasmid DNA expressing a Flag-tagged wild type (wt) coding sequence (wt-cDNA) for EPOR or VEGFR2, point mutations in the cognate region of the cDNA can be introduced where the shRNA binds to render the cDNA resistant to RISC cleavage without changing the native amino acid sequence (mut-cDNA). Then cotransfect 293T cells with either VEGFR2.shRNA or EPOR.shRNA and respective wt-cDNA or mut-cDNA. Off target effects can be determined by western blots of Flag expression or from interferon-induced genes using BLOCK-iT RNAi Stress Response Control Kit (Invitrogen, CA). Groups can be: rat EPOR.shRNAs+rat EPOR-wt-cDNA, rat EPOR. shRNAs+rat EPOR-mut-cDNA, rat VEGFR2.shRNA+rat VEGFR2-wt-cDNA or rat VEGFR2.shRNA+rat VEGFR2-mut-cDNA. Luc.shRNA and no DNA transfection can be controls. For specificity (FIG. 14A), lentiviral transduction of rECs, rat MCs (rMC-1s), human ARPE can be tested.
Using methods as in Example 5, 3 STAT3.shRNAs for knockdown in 293 Ts (FIG. 14D) were developed and tested. […]

[6] = test system: rMVECs; test: Lentivirus transduction specificity (ve-cadherin promoter) in cultured cells; format: cell-based; conditions: rMVECs vs rat MC-1s, 293T
[7] = test system: pSTAT3; test: IHC densitometry of pSTAT3 colabeled with lectin, p18 rat ROP model; format: in vivo; conditions: injected at p10, 10^6 viral particles/inj, vs. luc.shRNA
[8] = test system: retina; test: TUNEL staining, retinal layer thickness, caspase 3 in retina, rat ROP model; format: in vivo; conditions: compared with PBS
Protocol: Whole eye globes were fixed in 4% PFA containing 10 mM sodium orthovanadate for 10 minutes. Corneas and lenses were removed, and posterior eyecups were fixed for another 15 minutes in 4% PFA, then incubated in 30% sucrose/PBS at 4° C. overnight, and mounted in optimal cutting temperature compound (Tissue-Tek; Electron Microscopy Sciences, Hatfield, Pa.). Cryosections (12 μm) were cut sequentially and stained for immunofluorescence analysis. Cryosections were incubated with rabbit anti-phosphorylated VEGFR2 (p-VEGFR2 at Y951; Santa Cruz Biotechnology, Santa Cruz, Calif.) overnight at 4° C. After washes, sections were incubated with AlexaFluor 405 conjugated goat anti-rabbit second antibody for p-VEGFR2 and lectin for 1 hour. Sections stained with only secondary antibody and DAPI were controls. […] For p-VEGFR2 in retinal vessels, the density of p-VEGFR2 colabeling with lectin-stained ECs of the primary vascular plexus at the junctions between avascular retina and vascular retina was measured with the threshold function of the Java-based imaging software (NIH). TUNEL-positive cells colabeled with tetramethylrhodamine red (TMR red) and diamino-2-phenylindole (DAPI) were counted in retinal sections imaged at ×4 magnification. Retinal thickness was measured from ganglion cell to ONL in DAPI-stained sections captured at ×40 magnification using Java-based imaging software (NIH). […]

## O=P(O)(O)C(Cl)(Cl)P(=O)(O)O [clodronate]
[1]
  reduction of macrophages: ~75%
[2]
  AVA: not AVA
[2]; vs. PBS
  IVNV: significantly reduced

## CN(C)c1ccc(/C=C2\C(=O)Nc3ccccc32)cc1 [SU4312]
[3]
  retinal apoptosis: no retinal apoptosis

B1: vascular endothelial growth factor A (protein)
chain: APMAEGGGQNHHEVVKFMDVYQRSYCHPIETLVDIFQEYPDEIEYIFKPSCVPLMRCGGCCNDEGLECVPTEESNITMQIMRIKPHQGQHIGEMSFLQHNKCECRPKKDRARQENPCGPCSERRKHLFVQDPQTCKCSCKNTDSRCKARQLELNERTCRCDKPRR
notes: growth factor used at 20 ng/mL to stimulate hRMVECs
[4]; 20 ng/mL VEGFA or 10 IU/mL EPO
  EPOR protein: increased EPOR mRNA expression (FIG. 35A) and protein levels
[4]
  EPOR mRNA expression: increased EPOR mRNA expression

B2: STAT3.shRNA2: lentivector-ve-cadherin STAT3.shRNA with the best knockdown; rat STAT3 (nucleic acid)
chain: TGCTGTTGACAGTGAGCGAATCGTGGATCTGTTCAGAAACTAGTGAAGCCACAGATGTAGTTTCTGAACAGATCCACGATCTGCCTACTGCCTCGGA
[5]
  STAT3 knockdown among 3 STAT3.shRNAs: best knockdown
[6]
  cell specificity of transduction: showed specificity for rat MVECs
[7]
  pSTAT3/STAT3 colabeling with lectin: STAT3-lectin colabeling was reduced
[7]; listed as STAT3.shRNA
  pSTAT3/STAT3 colabeling with lectin: reduced

B3: luciferase.shRNA: control lentivector shRNA to the nonmammalian gene luciferase (nucleic acid)
DNA: TGCTGTTGACAGTGAGCGAAATGTTTACTACACTCGGATATAGTGAAGCCACAGATGTATATCCGAGTGTAGTAAACATTCTGCCTACTGCCTCGGA
[8]
  TUNEL+ cells: increased TUNEL+ cells at P18 but not at P25
  thickness of the retina, INL or ONL: did not alter the thickness of the retina
